Measured values reported in patent US20220041674A1 (published 2022).
Non-standard residues stand in square brackets, D forms with d. Nal = naphthylalanine

B1: FC131, c[yRRNaIG] (R2) (peptide)
peptide: cyclo([dY]RR[Nal]G)
notes: stands under the natLu column heads although it carries no chelator; also called cyclo(Gly-Nal-Arg-Arg-D-Tyr)

Tests used:
[1] = biological target: human chemokine receptor 4 (CXCR4) (human) (UniProt P61073); test: competitive radioligand binding on Jurkat cells, [125I]FC131 0.1 nM, 2 h RT
[2] = biological target: human chemokine receptor 4 (CXCR4) (human) (UniProt P61073); test: cell-based or functional assay
[3] = biological target: human chemokine receptor 4 (CXCR4) (human) (UniProt P61073); test: competitive radioligand binding on Jurkat cells (400.000 cells/sample), [125I]FC-131
[4] = biological target: T1, murine chemokine receptor 4 (CXCR4) (murine, UniProt P70658 1-359); test: competitive radioligand binding on Eµ-Myc1080 mouse B-cell lymphoma cells, [125I]CPCR4.3
T1 construct: whole, on cells; receptor present on whole cells; also called mCXCR4; mouse CXCR4
T1 sequence (P70658 whole entry): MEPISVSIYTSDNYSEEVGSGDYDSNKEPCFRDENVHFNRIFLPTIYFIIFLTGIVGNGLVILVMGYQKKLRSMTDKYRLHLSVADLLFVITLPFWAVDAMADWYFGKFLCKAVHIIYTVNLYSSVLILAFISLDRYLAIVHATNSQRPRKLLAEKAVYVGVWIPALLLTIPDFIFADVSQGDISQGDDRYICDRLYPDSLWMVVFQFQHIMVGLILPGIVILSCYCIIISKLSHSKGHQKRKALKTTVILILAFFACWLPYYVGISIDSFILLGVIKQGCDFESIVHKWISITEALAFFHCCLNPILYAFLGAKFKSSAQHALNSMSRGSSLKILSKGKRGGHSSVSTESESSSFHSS

Chain of human chemokine receptor 4 (CXCR4) (human) (P61073 whole entry): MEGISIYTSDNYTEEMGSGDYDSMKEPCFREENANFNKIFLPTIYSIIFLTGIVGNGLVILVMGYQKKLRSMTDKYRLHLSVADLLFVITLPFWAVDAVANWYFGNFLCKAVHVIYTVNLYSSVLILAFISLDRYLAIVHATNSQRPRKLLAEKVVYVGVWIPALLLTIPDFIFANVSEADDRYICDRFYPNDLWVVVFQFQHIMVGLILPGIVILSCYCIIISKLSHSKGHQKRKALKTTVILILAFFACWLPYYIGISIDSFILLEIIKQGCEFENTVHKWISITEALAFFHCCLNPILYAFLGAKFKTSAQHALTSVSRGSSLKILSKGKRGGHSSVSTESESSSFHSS

Molecule	IC50 [1] [nM]	IC50 [3] [nM]	also measured
^natGa-pentixafor, natGa complex of cyclo(D-Tyr1-D-[NMe]Orn2(AMBS-DOTA)-Arg3-Nal4-Gly5) (peptide)	24.8	–	–
^natLu-pentixafor, natLu complex of cyclo(D-Tyr1-D-[NMe]Orn2(AMBS-DOTA)-Arg3-Nal4-Gly5) (peptide)	41	–	–
^natLu-pentixather, natLu complex of cyclo(D-3-iodo-Tyr1-D-[NMe]Orn2(AMBS-DOTA)-Arg3-Nal4-Gly5) (peptide)	–	–	specific internalized activity (hCXCR4+ Chem 1 cells, 37 °C, 1.0 nM peptide, 60 min) [2]: 3.8%
cyclo[-yorn′(AMBF3(methyl(1H-1,2,3-triazol-4-yl)-rG-4-amino)benzoyl-)RNaIG] (F3b) (peptide)	–	2.4	–
cyclo[i-yorn′(AMBF3(methyl(1H-1,2,3-triazol-4-yl)4-amino)benzoyl-)RNaIG] (F1) (peptide)	–	134	–
cyclo[i-yorn′(AMBF3(methyl(1H-1,2,3-triazol-4-yl)-kG-4-amino)benzoyl-)RNaIG] (F4) (peptide)	–	3.8	–
cyclo[i-yorn′(AMBF3(methyl(1H-1,2,3-triazol-4-yl)-vG-4-amino)benzoyl-)RNaIG] (F2) (peptide)	–	65.2	–
cyclo[i-yorn′([natBi]DOTA-kG-(4-amino)benzoyl-)RNaIG ([natBi]P3) (peptide)	–	38	–
cyclo[i-yorn′([natGa]DOTA-dapG-(4-amino)benzoyl-)RNaIG ([natGa]P2) (peptide)	3.6	3.6	–
cyclo[i-yorn′([natGa]DOTA-kG-(4-amino)benzoyl-)RNaIG ([natGa]P3) (peptide)	2.4	2.4	–
cyclo[i-yorn′([natLu]DOTA-d-(4-amino)benzoyl-)RNaIG ([natLu]P1) (peptide)	106	106	–
cyclo[i-yorn′([natLu]DOTA-kG-(4-amino)benzoyl-)RNaIG ([natLu]P3) (peptide)	3.6	3.6	–
cyclo[i-yorn′([natLu]DOTA-ra-(4-amino)benzoyl-)RNaIG ([natLu]P5) (peptide)	–	–	specific internalized activity (hCXCR4+ Chem 1 cells, 37 °C, 1.0 nM peptide, 60 min) [2]: 36.7%
cyclo[i-yorn′([natY]DOTA-dapG-(4-amino)benzoyl-)RNaIG ([natY]P2) (peptide)	–	4.1	–
cyclo[i-yorn′([natY]DOTA-kG-(4-amino)benzoyl-)RNaIG ([natY]P3) (peptide)	–	2.4	–
cyclo[yorn′([natGa]DOTA-kG-(4-amino)benzoyl-)RNaIG ([natGa]P3b) (peptide)	8.9	8.9	–
cyclo[yorn′([natGa]DOTA-rG-(4-amino)benzoyl-)RNaIG ([natGa]P4b) (peptide)	9.7	9.7	–
cyclo[yorn′([natGa]DOTA-ra-(4-amino)benzoyl-)RNaIG ([natGa]P5b) (peptide)	0.4	0.4	–
cyclo[yorn′([natLu]DOTA-kG-(4-amino)benzoyl-)RNaIG ([natLu]P3b) (peptide)	8	8	–
cyclo[yorn′([natLu]DOTA-rG-(4-amino)benzoyl-)RNaIG ([natLu]P4b) (peptide)	5.4	5.4	–
cyclo[yorn′([natLu]DOTA-ra-(4-amino)benzoyl-)RNaIG ([natLu]P5b) (peptide)	–	–	specific internalized activity (hCXCR4+ Chem 1 cells, 37 °C, 1.0 nM peptide, 60 min) [2]: 21.2%
cyclo[yorn′([natY]DOTA-kG-(4-amino)benzoyl-)RNaIG ([natY]P3b) (peptide)	–	6.3	–
cyclo[yorn′([natY]DOTA-rG-(4-amino)benzoyl-)RNaIG ([natY]P4b) (peptide)	–	8.7	–
cyclo[yorn′([natY]DOTA-ra-(4-amino)benzoyl-)RNaIG ([natY]P5b) (peptide)	–	0.3	–
B1	–	–	IC50 [4]: 119 nM
